B1: TIF2 732-756 peptide (peptide)
peptide: QEPVSPKKKENALLRYLLDKDDTKD
notes: Free peptide used in solution for the stability study and for co-crystallization; No biotin is mentioned for these uses; also called TIF2 peptide; TIF2 fragment
B2: GR LBD (F602S) 521-777 (receptor)
chain: GSVPATLPQLTPTLVSLLEVIEPEVLYAGYDSSVPDSTWRIMTTLNMLGGRQVIAAVKWAKAIPGFRNLHLDDQMTLLQYSWMSLMAFALGWRSYRQSSANLLCFAPDLIINEQRMTLPCMYDQCKHMLYVSSELHRLQVSYEEYLCMKTLLLLSSVPKDGLKSQELFDEIRMTYIKELGKAIVKREGNSSQNWQRFYQLTKLLDSMHEVVENLLNYCFQTFLDKTMSIEFPEMLAEIITNQIPKYSNGNIKKLLFHQK
notes: also called GR(521-777) F602S; cleaved GR LBD

Tests used:
GR LBD (F602S) 521-777 = biological target: B2; experiment: co-crystallization
Experimental: The GR/TIF2/DEX crystals were grown at room temperature in hanging drops containing 3.0 ul of the above protein-ligand solutions, and 0.5 ul of well buffer (50 mM HEPES, pH 7.5-8.5 (preferred pH range is 8.0 to 8.5), and 1.7-2.3M ammonium formate). Crystals were also obtained with mixing of the above protein solution and the well buffer at various volume ratios. Crystals appeared overnight and continously grew to a size up to 300 micron within a week. Before data collection, crystals were transiently mixed with the well buffer that contained an additional 25% glycerol, and were then flash frozen in liquid nitrogen.

X-ray crystal structure = biological target: the molecule itself; experiment: X-ray crystal structure

binding result (GR LBD (F602S) 521-777) | Binder | binding result (X-ray crystal structure)
binds | B1 | –
– | B2 | binds
